The target of test [1] is complement fragment iC3b (UniProt P01024). In words: ELISA. For orientation: ELISA stands for enzyme-linked immunosorbent assay.
Test [2] has the same target. In words: SPR. A general note: SPR reads the build-up and loss of mass on a sensor chip optically.

Numbering of substitutions follows the chain as printed. Names and notes keep the numbering of the source.

B1: GST-αX I-domain (domain or fragment)
chain: RQEQDIVFLIDGSGSISSRNFATMMNFVRAVISQFQRPSTQFSLMQFSNKFQTHFTFEEFRRSSNPLSLLASVHQLQGFTYTATAIQNVVHRLFHASYGARRDAAKILIVITDGKKEGDSLDYKDVIPMADAAGIIRYAIGVGLAFQNRNSWKELNDIASKPSQEHIFKVEDFDALKDIQNQLKEKIFAIEG
B1: the results for the Kd with complement fragment iC3b [1] and in the test with complement fragment iC3b [2] were 1000 nM and 1060 nM, respectively.

B2: GST-αX I-domain K242A/K243A (domain or fragment)
chain: B1 chain with K115A, K116A
Consider B2, for which, in the test with complement fragment iC3b [2], the Kd (commonly the constant that tells how readily two partners part at equilibrium) turned out to be 2890 nM.

B3: GST-αX I-domain D249M (domain or fragment)
chain: B1 chain with D103M
Molecule B3 registered an equilibrium dissociation constant (Kd) with complement fragment iC3b [2] of 490 nM.

B4: GST-αX I-domain K243S/E244H (domain or fragment)
chain: B1 chain with K116S, E117H
Consider B4, for which, in the test with complement fragment iC3b [2], the Kd was found to be 560 nM.

Values taken from article PMC7772510.
